Data from article doi:10.1101/2025.02.24.639830.

System: LeuO (Escherichia coli (ASKA library overexpression strain))
Assay: EMSA

## leuLABCD promoter region EMSA probe
  K half: 25 nM
